Experimental data taken from PMC13038408.

Legend:
RSVF-multi-4 K29L = assay: SPR
[1] = target: prefusion RSVF sc9-10 DS-Cav1-A149C;Y458C;S46G;E92D;S215P;K465Q thermostabilized variant (DS2) (respiratory syncytial virus) (UniProt P03420); assay: SPR

Sequence of motavizumab Fab (VH): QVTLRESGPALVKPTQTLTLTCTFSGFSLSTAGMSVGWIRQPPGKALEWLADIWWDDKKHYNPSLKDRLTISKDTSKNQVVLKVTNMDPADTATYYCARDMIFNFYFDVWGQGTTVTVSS
Sequence of motavizumab Fab (VL): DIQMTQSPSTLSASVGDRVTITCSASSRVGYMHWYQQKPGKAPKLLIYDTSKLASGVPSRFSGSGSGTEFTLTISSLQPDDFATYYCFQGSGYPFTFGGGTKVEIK

Substance	Kd (RSVF-multi-4 K29L)	Kd [1]
RSV90 Fab	> 1000 nM	0.9 nM
motavizumab Fab		0.015 nM
